B1: CPEB3 Ribozyme (parent)
chain: GGGGGCCACAGCAGAAGCGUUCACGUCGCGGCCCCUGUCAGAUUCUGGUGAAUCUGCGAAUUCUGCUGU

Variants of: B1
Assay: self-cleavage, relative activity (ratio to wild type); higher = more cleavage; co-transcriptional

For GGGGGCCACAGCAGAAGCGUUCACGACGCAGCCCCUGUCAGAUUCUGGUGAAUCUGCGAAUUCUGCUGU [U26A G30A], which self-cleavage is on record?
The self-cleavage was 0.36.

With GGGGGCCACAGCAGAAGCGUUCACGACGCGGCCCCUGUCAGAUUCUGGUGAAUCUGCGAAUACUGCUGU [U26A U62A] as the variant, how does the self-cleavage read?
Its self-cleavage is 0.671.

With GGGGGCCACAGCAGAAGCGUUCACGACGCGGACCCUGUCAGAUUCUGGUGAAUCUGCGAAUUCUGCUGU [U26A C32A] as the variant, how does the self-cleavage read?
The self-cleavage was 0.422.

Which self-cleavage does the source give for GGGGGCCACAGCAGAAGCGUUCACGACGCGGGCCCUGUCAGAUUCUGGUGAAUCUGCGAAUUCUGCUGU [U26A C32G] here?
The self-cleavage was 0.231.

With GGGGGCCACAGCAGAAGCGUUCACGACGCGGUCCCUGUCAGAUUCUGGUGAAUCUGCGAAUUCUGCUGU [U26A C32U] as the variant, how does the self-cleavage read?
The self-cleavage was 0.869.

With GGGGGCCACAGCAGAAGCGUUCACGACGCGGCCCCUGUCAGACUCUGGUGAAUCUGCGAAUUCUGCUGU [U26A U43C] as the variant, how does the self-cleavage read?
The self-cleavage was 0.802.

For GGGGGCCACAGCAGAAGCGUUCACGACGCGGCCCCUGUCAGAGUCUGGUGAAUCUGCGAAUUCUGCUGU [U26A U43G], which self-cleavage is on record?
Its self-cleavage is 0.707.

Which self-cleavage does the source give for GGGGGCCACAGCAGAAGCGUUCACGCCGCGGCCCCUGUCAGAUUCUGGUGAGUCUGCGAAUUCUGCUGU [U26C A52G] here?
Its self-cleavage is 1.01.

With GGGGGCCACAGCAGAAGCGUUCACGCCGCGGCCCCUGUCAGAUUCUGGUGAUUCUGCGAAUUCUGCUGU [U26C A52U] as the variant, how does the self-cleavage read?
Its self-cleavage is 0.989.

For GGGGGCCACAGCAGAAGCGUUCACGCCGCGGCCCCUGUCAGAUUCUGGUGACUCUGCGAAUUCUGCUGU [U26C A52C], which self-cleavage is on record?
Its self-cleavage is 0.995.

Which self-cleavage does the source give for GGGGGCCACAGCAGAAGCGUUCACGCCGCGGCCCCUGUCAGCUUCUGGUGAAUCUGCGAAUUCUGCUGU [U26C A42C] here?
The self-cleavage was 1.01.

For GGGGGCCACAGCAGAAGCGUUCACGCCGCGGCCCCUGUCAGUUUCUGGUGAAUCUGCGAAUUCUGCUGU [U26C A42U], which self-cleavage is on record?
Its self-cleavage is 0.964.

With GGGGGCCACAGCAGAAGCGUUCACGACGCGGCCCCUGUCAGAUUCUGGUGAAUCUGCGAAGUCUGCUGU [U26A U61G] as the variant, how does the self-cleavage read?
Its self-cleavage is 0.559.

With GGGGGCCACAGCAGAAGCGUUCACGACGCGGCCCCUGUCAGAUUCUGGUGAAUCUGCGAACUCUGCUGU [U26A U61C] as the variant, how does the self-cleavage read?
Its self-cleavage is 0.403.

Which self-cleavage does the source give for GGGGGCCACAGCAGAAGCGUUCACGACGCGGCCCCUGUCAGAUUCUGGUGAAUCUGCGAAUUCUGCUGG [U26A U69G] here?
The self-cleavage was 0.977.

For GGGGGCCACAGCAGAAGCGUUCACGACGCGGCCCCUGUCAGAUUCUGGUGAAUCUGCGAAUUCUGCUGC [U26A U69C], which self-cleavage is on record?
The self-cleavage was 1.04.

Which self-cleavage does the source give for GGGGGCCACAGCAGAAGCGUUCACGACGCGGCCGCUGUCAGAUUCUGGUGAAUCUGCGAAUUCUGCUGU [U26A C34G] here?
Its self-cleavage is 0.501.

With GGGGGCCACAGCAGAAGCGUUCACGACGCGGCCUCUGUCAGAUUCUGGUGAAUCUGCGAAUUCUGCUGU [U26A C34U] as the variant, how does the self-cleavage read?
The self-cleavage was 0.93.

With GGGGGCCACAGCAGAAGCGUUCACGACGCGGCCCCUGUCAGAUUCUGGUGAAUCUGCGAAUUAUGCUGU [U26A C63A] as the variant, how does the self-cleavage read?
Its self-cleavage is 0.51.

Which self-cleavage does the source give for GGGGGCCACAGCAGAAGCGUUCACGACGCGGCCCCUGUCAGAUUCUGGUGAAUCGGCGAAUUCUGCUGU [U26A U55G] here?
The self-cleavage was 0.44.

For GGGGGCCACAGCAGAAGCGUUCACGACGCGGCCCCUGUCAGAUUCUGGUGAAUCCGCGAAUUCUGCUGU [U26A U55C], which self-cleavage is on record?
Its self-cleavage is 0.712.

Which self-cleavage does the source give for GGGGGCCACAGCAGAAGCGUUCACGACCCGGCCCCUGUCAGAUUCUGGUGAAUCUGCGAAUUCUGCUGU [U26A G28C] here?
The self-cleavage was 0.114.

Which self-cleavage does the source give for GGGGGCCACAGCAGAAGCGUUCACGACACGGCCCCUGUCAGAUUCUGGUGAAUCUGCGAAUUCUGCUGU [U26A G28A] here?
The self-cleavage was 0.216.

For GGGGGCCACAGCAGAAGCGUUCACGACGCGGCCCCUGUCAGAUUCUGGUGAAUCUGGGAAUUCUGCUGU [U26A C57G], which self-cleavage is on record?
Its self-cleavage is 0.216.

With GGGGGCCACAGCAGAAGCGUUCACGACGCGGCCCCUGUCAGAUUCUGGUGAAUCUGUGAAUUCUGCUGU [U26A C57U] as the variant, how does the self-cleavage read?
The self-cleavage was 0.39.

For GGGGGCCACAGCAGAAGCGUUCACGACGCGGCCCAUGUCAGAUUCUGGUGAAUCUGCGAAUUCUGCUGU [U26A C35A], which self-cleavage is on record?
Its self-cleavage is 0.228.

With GGGGGCCACAGCAGAAGCGUUCACGACGCGGCCCUUGUCAGAUUCUGGUGAAUCUGCGAAUUCUGCUGU [U26A C35U] as the variant, how does the self-cleavage read?
Its self-cleavage is 0.644.

With GGGGGCCACAGCAGAAGCGUUCACGACGCGGCCCCUGUCAGAUUCUGAUGAAUCUGCGAAUUCUGCUGU [U26A G48A] as the variant, how does the self-cleavage read?
The self-cleavage was 0.846.

With GGGGGCCACAGCAGAAGCGUUCACGACGCGGCCCCUGUCAGAUUCUGCUGAAUCUGCGAAUUCUGCUGU [U26A G48C] as the variant, how does the self-cleavage read?
Its self-cleavage is 0.882.

With GGGGGCCACAGCAGAAGCGUUCACGACGCGGCCCCUGUCAGAUUCGGGUGAAUCUGCGAAUUCUGCUGU [U26A U46G] as the variant, how does the self-cleavage read?
The self-cleavage was 0.895.

For GGGGGCCACAGCAGAAGCGUUCACGACGCGGCCCCUGUCAGAUUCAGGUGAAUCUGCGAAUUCUGCUGU [U26A U46A], which self-cleavage is on record?
Its self-cleavage is 0.906.

Which self-cleavage does the source give for GGGGGCCACAGCAGAAGCGUUCACGACGCGGCCCCAGUCAGAUUCUGGUGAAUCUGCGAAUUCUGCUGU [U26A U36A] here?
Its self-cleavage is 0.15.

With GGGGGCCACAGCAGAAGCGUUCACGACGCGGCCCCGGUCAGAUUCUGGUGAAUCUGCGAAUUCUGCUGU [U26A U36G] as the variant, how does the self-cleavage read?
The self-cleavage was 0.145.

With GGGGGCCACAGCAGAAGCGUUCACGACGCGGCCCCCGUCAGAUUCUGGUGAAUCUGCGAAUUCUGCUGU [U26A U36C] as the variant, how does the self-cleavage read?
The self-cleavage was 0.403.

With GGGGGCCACAGCAGAAGCGUUCACGCCGGGGCCCCUGUCAGAUUCUGGUGAAUCUGCGAAUUCUGCUGU [U26C C29G] as the variant, how does the self-cleavage read?
Its self-cleavage is 0.345.

With GGGGGCCACAGCAGAAGCGUUCACGCCGAGGCCCCUGUCAGAUUCUGGUGAAUCUGCGAAUUCUGCUGU [U26C C29A] as the variant, how does the self-cleavage read?
The self-cleavage was 0.414.

With GGGGGCCACAGCAGAAGCGUUCACGCCGCGGCCCCUGUCAGAUUCUGGUGAAUCUGCGAUUUCUGCUGU [U26C A60U] as the variant, how does the self-cleavage read?
The self-cleavage was 0.337.

For GGGGGCCACAGCAGAAGCGUUCACGCCGCGGCCCCUGUCAGAUUCUGGUGAAUCUGCGACUUCUGCUGU [U26C A60C], which self-cleavage is on record?
Its self-cleavage is 0.233.

Which self-cleavage does the source give for GGGGGCCACAGCAGAAGCGUUCACGACGCGGCCCCUGUCAGAUUCUGGUAAAUCUGCGAAUUCUGCUGU [U26A G50A] here?
The self-cleavage was 0.871.

Source: the RNAGym collection of RNA variant scans (doi:10.7554/elife.80360)
